The text below walks through data of patent US20220332804A1 (CSL INNOVATION, published 2022).

Holding throughout (experiment): SPR, KD relative to WT C2;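 further: biacore SPR at 37 °C, anti-C2 mAbs captured on anti-human IgG chips with alanine or serine point mutants of C2 as analyte, KD from 1:1 fit compared with wild-type C2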
(SPR reads the build-up and loss of mass on a sensor chip optically.)

The target of one test is T1, human C2 D431A (human, UniProt P06681 21-752).
T1 sequence: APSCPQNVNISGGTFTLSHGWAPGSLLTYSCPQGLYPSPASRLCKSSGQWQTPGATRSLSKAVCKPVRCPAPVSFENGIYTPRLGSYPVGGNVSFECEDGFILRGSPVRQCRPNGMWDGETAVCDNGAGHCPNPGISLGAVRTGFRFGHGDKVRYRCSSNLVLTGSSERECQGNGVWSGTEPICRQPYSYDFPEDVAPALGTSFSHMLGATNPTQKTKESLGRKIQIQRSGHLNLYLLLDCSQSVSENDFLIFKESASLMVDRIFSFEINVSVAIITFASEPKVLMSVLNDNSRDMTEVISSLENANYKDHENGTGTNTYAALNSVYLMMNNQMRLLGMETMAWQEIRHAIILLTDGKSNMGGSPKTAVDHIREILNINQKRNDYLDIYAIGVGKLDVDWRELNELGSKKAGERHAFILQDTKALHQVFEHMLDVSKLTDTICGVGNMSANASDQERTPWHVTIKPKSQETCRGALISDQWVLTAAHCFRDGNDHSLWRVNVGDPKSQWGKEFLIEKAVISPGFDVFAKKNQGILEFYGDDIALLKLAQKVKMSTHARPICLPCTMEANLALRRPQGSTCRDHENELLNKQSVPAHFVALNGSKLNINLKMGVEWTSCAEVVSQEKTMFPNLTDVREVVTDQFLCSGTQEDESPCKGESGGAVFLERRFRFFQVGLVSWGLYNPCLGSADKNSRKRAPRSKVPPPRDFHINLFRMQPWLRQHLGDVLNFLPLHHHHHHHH

A further test deals with T2, human C2 D404A (human, UniProt P06681 21-752).
T2 sequence: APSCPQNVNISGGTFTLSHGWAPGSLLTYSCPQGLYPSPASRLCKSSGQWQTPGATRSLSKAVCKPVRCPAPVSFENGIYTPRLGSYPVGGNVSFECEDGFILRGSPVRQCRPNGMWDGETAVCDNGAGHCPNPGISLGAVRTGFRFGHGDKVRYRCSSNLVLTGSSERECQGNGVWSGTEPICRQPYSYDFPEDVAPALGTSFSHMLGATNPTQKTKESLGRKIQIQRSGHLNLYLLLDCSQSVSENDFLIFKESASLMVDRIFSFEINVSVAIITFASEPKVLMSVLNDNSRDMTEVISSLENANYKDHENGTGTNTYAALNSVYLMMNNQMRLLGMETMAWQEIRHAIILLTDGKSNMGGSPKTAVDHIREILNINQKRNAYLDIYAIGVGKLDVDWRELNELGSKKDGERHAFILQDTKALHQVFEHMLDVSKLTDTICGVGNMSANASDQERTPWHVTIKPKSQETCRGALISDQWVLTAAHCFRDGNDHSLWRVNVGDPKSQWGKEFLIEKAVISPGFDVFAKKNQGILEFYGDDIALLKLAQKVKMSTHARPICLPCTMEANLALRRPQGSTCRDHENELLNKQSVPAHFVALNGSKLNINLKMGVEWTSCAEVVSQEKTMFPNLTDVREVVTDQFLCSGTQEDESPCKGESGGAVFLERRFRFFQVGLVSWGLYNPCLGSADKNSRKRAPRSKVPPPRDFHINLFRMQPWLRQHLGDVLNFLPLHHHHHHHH

In another test the target is T3, human C2 G414A (human, UniProt P06681 21-752).
T3 sequence: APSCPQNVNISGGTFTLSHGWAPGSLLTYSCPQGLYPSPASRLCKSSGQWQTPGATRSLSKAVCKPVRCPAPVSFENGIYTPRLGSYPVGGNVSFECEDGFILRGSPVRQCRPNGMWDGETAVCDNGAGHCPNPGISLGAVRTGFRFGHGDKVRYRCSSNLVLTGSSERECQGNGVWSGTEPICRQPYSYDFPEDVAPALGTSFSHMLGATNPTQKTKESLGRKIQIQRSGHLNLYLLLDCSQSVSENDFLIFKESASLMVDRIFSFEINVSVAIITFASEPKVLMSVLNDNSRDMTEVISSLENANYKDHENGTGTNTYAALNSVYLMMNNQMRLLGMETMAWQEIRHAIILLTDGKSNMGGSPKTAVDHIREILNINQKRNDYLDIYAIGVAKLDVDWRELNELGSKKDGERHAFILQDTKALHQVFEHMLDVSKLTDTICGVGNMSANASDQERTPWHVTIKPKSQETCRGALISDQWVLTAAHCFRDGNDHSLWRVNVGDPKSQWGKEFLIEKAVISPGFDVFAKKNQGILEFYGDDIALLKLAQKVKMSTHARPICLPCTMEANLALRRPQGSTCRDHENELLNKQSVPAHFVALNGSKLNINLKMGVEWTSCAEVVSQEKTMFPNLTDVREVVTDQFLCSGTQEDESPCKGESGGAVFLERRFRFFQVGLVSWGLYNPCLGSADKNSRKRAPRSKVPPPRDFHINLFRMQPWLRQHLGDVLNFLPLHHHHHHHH

A further test concerns the target T4, human C2 E476A (human, UniProt P06681 21-752).
T4 sequence: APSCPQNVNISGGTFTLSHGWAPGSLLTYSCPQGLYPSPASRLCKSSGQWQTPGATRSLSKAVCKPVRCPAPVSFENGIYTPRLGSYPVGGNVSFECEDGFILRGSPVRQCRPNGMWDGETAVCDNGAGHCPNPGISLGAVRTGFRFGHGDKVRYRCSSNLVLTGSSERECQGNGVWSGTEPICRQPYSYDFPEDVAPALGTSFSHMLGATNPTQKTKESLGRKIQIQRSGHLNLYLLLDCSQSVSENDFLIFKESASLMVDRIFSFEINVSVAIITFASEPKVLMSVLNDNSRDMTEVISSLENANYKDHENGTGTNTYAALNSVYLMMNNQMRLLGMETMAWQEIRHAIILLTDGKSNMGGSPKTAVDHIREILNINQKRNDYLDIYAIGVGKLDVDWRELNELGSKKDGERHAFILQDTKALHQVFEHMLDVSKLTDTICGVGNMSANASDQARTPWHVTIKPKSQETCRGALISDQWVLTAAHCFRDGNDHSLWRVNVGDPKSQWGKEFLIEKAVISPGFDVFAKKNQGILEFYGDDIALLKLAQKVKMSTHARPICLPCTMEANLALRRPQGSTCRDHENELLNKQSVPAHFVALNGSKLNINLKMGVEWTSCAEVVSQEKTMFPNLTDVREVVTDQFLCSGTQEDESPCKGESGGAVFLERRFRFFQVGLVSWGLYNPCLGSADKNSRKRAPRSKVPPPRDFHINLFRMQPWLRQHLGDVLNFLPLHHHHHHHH

Method for human C2 D404A: (§1) Surface plasmon resonance (SPR, Biacore) was used for all binding affinity analyses. In brief, goat anti-human IgG was directly immobilised onto the carboxymethyl dextran surface of CM5 sensorchips to approximately 12,000 RU using standard NHS/EDC chemistry at pH 5. The immobilised antibody surface was pre-conditioned with ten injections of polyclonal human IgG (Privigen 60 s) prepared at 1 μg/mL. Ligands (anti-C2 mAbs) were captured at the beginning of each cycle as described below. An adjacent spot or flow cell in which only Polyclonal IgG was capture was used as a reference surface. The goat anti-human IgG Fc antibody surface was regenerate in 100 mM H3PO4, injected for 45 seconds at the end of each cycle. Experiments were performed at 37° C. and the flow rate of each experiment was kept constant at 30 μL/min.
(§2) Sensogram data was double-referenced against a reference anti-IgG surface (i.e. minus anti-C2 mAb) and blank buffer injections obtained within each experiment. The binding data was fit to 1:1 (kinetic or steady-state) model using local Rmax and null refraction index (RI=0) when appropriate. Buffers and solutions were filtered (0.22 μm) prior to use.
Method for human C2 D431A: as §1, §2
Method for human C2 E476A: as §1, §2
Method for human C2 G414A: as §1, §2

B1: RF16-242 (antibody, human IgG4 S228P, lambda, V domains shown)
VH: EVQLLQSGAEVKKPGESLKISCKGSGYSFTSYWIGWVRQMPGKGLEWMGIIYPGDSDTRYSPSFQGQVTISADKSISTAYLQWSSLKASDTAMYYCARRGHYGDYFDYWGQGTLVTVSS
VL: SYELTQPPSVSVSPGQTARITCSGDALPKKYAYWYHQKSGQAPVLVIYEDRRRPSEIPERFSGSSSGTMATLTITGAQVEDEGVYFCYSRDRAGNQRVFGGGTQLTVLG
notes: pH-dependent anti-C2 antibody from a phage display library
Regarding B1, the Fold diff stood at 3 fold with human C2 D431A, 2 fold with human C2 D404A, 1 fold with human C2 G414A and 2 fold in the test with human C2 E476A.
